Reference: patent CN114989291A (ZHEJIANG ANWEILUO DIAGNOSTIC TECH CO LTD, dated 2022)

Legend:
Assay in all cases: cell-based or functional assay
SARS-CoV-2 S蛋白, 突变株 P.1 = SARS-CoV-2 S蛋白, 突变株 P.1 (SARS-CoV-2)
[1] = biological target: SARS-CoV-2 S蛋白, 突变株 B.1.351 (SARS-CoV-2)
[2] = biological target: SARS-CoV-2 S蛋白, 突变株 B.1.525 (SARS-CoV-2)
[3] = biological target: SARS-CoV-2 S蛋白, 突变株 B.1.1.7 (SARS-CoV-2)
[4] = biological target: SARS-CoV-2 S蛋白, 突变株 B.1.617.2 (SARS-CoV-2)

B1: 抗SARS-CoV-2全人源化单克隆抗体1B3 (antibody, V domains shown)
VH: VQLVESGGGVVQPGRSLRLSCAASGFTFSSYAMHWVRQAPGKGLEWVAVISYDGSNKYYADSVKGRFTISRDNSKNTLYLQMNSLRAEDTAVYYCAKVAGGPYYYDSSGRDWYFDLWGRGTLVTVSA
VL: DIQMTQSPSSLSASVGDRVSITCRASQSISSFLNWFQQKPGKAPNLLIYAASSLESGVPSRFSGSGSGTDFTLTISSLQPEDFATYYCQQSYSAPPTFGQGTRLEIKR
Question: For B1, which “EC50, 假病毒细胞模型中和活性 (luciferase, ACE2-293T细胞)” value (“EC50, 假病毒细胞模型中和活性” below) (SARS-CoV-2 S蛋白, 突变株 P.1) is on record?
Answer: 3.83 µg/mL

Question: And the “EC50, 假病毒细胞模型中和活性” value [1]?
Answer: 2.05 µg/mL

Question: And the “EC50, 假病毒细胞模型中和活性” value [2]?
Answer: 1.7 µg/mL

Question: What about the “EC50, 假病毒细胞模型中和活性” value [3] of the same binder?
Answer: 2.51 µg/mL

Question: And the “EC50, 假病毒细胞模型中和活性” value [4]?
Answer: 1.69 µg/mL
